In the supplement of paper PMC7877785:
± gives the uncertainty stated by the source.

Assay: self-splicing fitness, log relative to wild type (ln ratio); higher = more splicing; Tetrahymena group I intron in knt gene, E. coli kanamycin selection, DiMSum; sequences stand for … in CUCUCU…GGAGGGAAAAGUUAUCAGGCAUGCACCUGGUAGCUAGUCUUUAAACCAAUAGAUUGCAUCGGUUUAAAAGGCAAGACCGUCAAAUUGCGGGAAAGGGGUCAACAGCCGUUCAGUACCAAGUCUCAGGGGAAACUUUGAGAUGGCCUUGCAAAGGGUAUGGUAAUAAGCUGACGGACAUGGUCCUAACCACGCAGCCAAGUCCUAAGUCAACAGAUCUUCUGUUGAUAUGGAUGCAGUUCACAGACUAAAUGUCGGUCGGGGAAGAUGUAUUCUUCUCAUAAGAUAUAGUCGGACCUCUCCUUAAUGGGAGCUAGCGGAUGAAGUGAUGCAACACUGGAGCCGCUGGGAACUAAUUUGUAUGCGAAAGUAUAUUGAUUAGUUUUGGAGUACUCGUGGUCG
Outline: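 A randomised library covering all eight P1ex-region intron nucleotides was built with the intron in the knt kanamycin-resistance gene on pET-22b(+) and held in E. coli BL21(DE3). Cells were grown overnight at 37°C or 30°C on LB agar, with or without 25 μg/mL kanamycin, plus 100 μg/mL carbenicillin, 50 μM IPTG and 0.2% rhamnose, and pooled colonies were amplicon-sequenced on an Illumina HiSeq 2500. DiMSum fitness is the error-weighted combination of wild-type-normalised replicate fold changes, kanamycin versus none.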

Sequence | self-splicing fitness (ln) (30 °C) | self-splicing fitness (ln) (37 °C)
GACGAGCAAUAUUACGCCUC | -3.23 ± 0.37 | -1.86 ± 0.38
GACGAGCAAUAUUACGCGGG | -3.48 ± 0.47 | -2.61 ± 0.36
GACGAGCAAUAUUACGCUCA | -1.28 ± 0.15 | -0.493 ± 0.13
GACGAGCAAUAUUACGGAAG | -2.39 ± 0.23 | -2.5 ± 0.31
GACGAGCAAUAUUACGGACC | -1.34 ± 0.34 | -0.304 ± 0.33
GACGAGCAAUAUUACGGCGA | -2.12 ± 0.13 | -1.65 ± 0.13
GACGAGCAAUAUUACGGGCC | -2.12 ± 0.14 | -1.63 ± 0.21
GACGAGCAAUAUUACGGGGG | -3.65 ± 0.22 | -2.98 ± 0.3
GACGAGCAAUAUUACGGGGU | – | -2.59 ± 0.25
GACGAGCAAUAUUACGGUAU | -3.43 ± 0.19 | -2.08 ± 0.26
GACGAGCAAUAUUACGUAAA | -2.58 ± 0.18 | –
GACGAGCAAUAUUACGUACC | -3.61 ± 0.28 | -1.75 ± 0.21
GACGAGCAAUAUUACGUAGC | -4.54 ± 0.41 | -2.33 ± 0.25
GACGAGCAAUAUUACGUAUA | -3.23 ± 0.29 | -0.524 ± 0.2
GACGAGCAAUAUUACGUCCU | -3.24 ± 0.25 | -1.81 ± 0.25
GACGAGCAAUAUUACGUCGG | – | -1.96 ± 0.34
GACGAGCAAUAUUACGUGCU | -2.92 ± 0.19 | -2.4 ± 0.23
GACGAGCAAUAUUACGUUCC | -3.47 ± 0.23 | -2.65 ± 0.36
GACGAGCAAUAUUACGUUCU | -4.53 ± 0.37 | -2.52 ± 0.24
GACUAGCAAUAUUACGAAGG | -2.64 ± 0.17 | -1.87 ± 0.18
GACUAGCAAUAUUACGAGGG | -3.34 ± 0.18 | -2.65 ± 0.2
GACUAGCAAUAUUACGAUUU | 0.261 ± 0.061 | 0.116 ± 0.077
GACUAGCAAUAUUACGCAAA | -1.49 ± 0.15 | -1.88 ± 0.23
GACUAGCAAUAUUACGCCGG | – | -1.67 ± 0.36
GACUAGCAAUAUUACGCCUU | -0.605 ± 0.067 | 0.734 ± 0.092

Sequence | self-splicing fitness (ln) (30 °C) | self-splicing fitness (ln) (37 °C)
GACUAGCAAUAUUACGCGGA | -1.55 ± 0.13 | -0.984 ± 0.11
GACUAGCAAUAUUACGCGGC | -3.16 ± 0.38 | –
GACUAGCAAUAUUACGGAAG | -3.56 ± 0.19 | -2.21 ± 0.19
GACUAGCAAUAUUACGGCUC | 0.193 ± 0.1 | 0.351 ± 0.12
GACUAGCAAUAUUACGGGAA | -2.32 ± 0.19 | -0.809 ± 0.16
GACUAGCAAUAUUACGGGGC | -4.11 ± 0.23 | -1.21 ± 0.13
GACUAGCAAUAUUACGGGGG | -3.39 ± 0.27 | -1.46 ± 0.25
GACUAGCAAUAUUACGGGUG | -1.25 ± 0.078 | -0.949 ± 0.07
GACUAGCAAUAUUACGGUAG | -0.551 ± 0.12 | -0.15 ± 0.14
GACUAGCAAUAUUACGUCAG | -2.88 ± 0.21 | -3.7 ± 0.37
GAGAAGCAAUAUUACGACUA | -0.502 ± 0.061 | 0.183 ± 0.082
GAGAAGCAAUAUUACGAGCC | -1.03 ± 0.097 | -0.808 ± 0.15
GAGAAGCAAUAUUACGAGUG | -2.91 ± 0.14 | -1.01 ± 0.11
GAGAAGCAAUAUUACGCACU | -1.73 ± 0.14 | -0.249 ± 0.16
GAGAAGCAAUAUUACGCAUA | -1.72 ± 0.13 | -1.01 ± 0.14
GAGAAGCAAUAUUACGCCCG | -2.15 ± 0.19 | 0.00226 ± 0.24
GAGAAGCAAUAUUACGCGUG | -0.423 ± 0.062 | -0.803 ± 0.09
GAGAAGCAAUAUUACGCUAA | -2.47 ± 0.3 | -0.911 ± 0.24
GAGAAGCAAUAUUACGGAAA | -2.35 ± 0.45 | -1.92 ± 0.35
GAGAAGCAAUAUUACGGACA | -0.633 ± 0.11 | -1.02 ± 0.14
GAGAAGCAAUAUUACGGACC | -0.43 ± 0.18 | 0.267 ± 0.19
GAGAAGCAAUAUUACGGCAC | -1.28 ± 0.083 | -0.111 ± 0.15
GAGAAGCAAUAUUACGGCAG | -3.08 ± 0.41 | -1.85 ± 0.3
GAGAAGCAAUAUUACGGGAC | -2.56 ± 0.13 | -1.37 ± 0.12
